In US20210340232A1, “MONOCLONAL ANTIBODIES AGAINST HUMAN DICKKOPF3 AND USES THEREOF” (Board of Regents, The University of Texas System, priority 2018, published 2021):

Tested on: BxPC3 orthotopic tumors
Assay: Orthotopic BxPC3 tumors without HPSCs in nude mice
Assay type: in vivo, mouse
Conditions: BxPC3 alone; 5 mg/kg i.p. once every 5 days; vs PBS or isotype control mAb
Procedure: FIGS. 11A-C. DKK3 expression in autochthonous model of PDAC and effects of DKK3 mAb on cell surface binding of DKK3 and orthotopic model. (FIG. 11A) DKK3 expression was measured by qPCR in pancreatic tumors from P48-Cre; Kras LSL-G12D;Trp53fl/fl and P48-Cre; Kras LSL-G12D;Trp53fl/+ mice that are either wild type DKK3 or heterozygous or homozygous DKK3-null. Relative expression of DKK3 mRNA in DKK3+/− hetero mice is 53% of DKK3^+/+ mice. (FIG. 11B) DKK3 cell surface binding was assessed by incubating BxPC3 or L3.6p1 cells with His-tagged rhDKK3 (10 μg/ml) with or without JM6-6-1 (70 μg/ml) and positive cells were sorted by flow cytometry. (FIG. 11C) Mice bearing orthotopic BxPC3 tumors were treated with DKK3 mAb JM6-6-1 (5 mg/kg i.p. once every 5 days). Overall tumor progression was measured every 3-4 days by IVIS imaging.
An orthotopic nude mouse model of PDAC using BxPC3 cancer cells labeled with firefly luciferase (BxPC3-FL) co-injected with HPSCs has been previously described (Hwang et al., 2008). Mice received intrapancreatic injections of BxPC3-FL (1×10^6 per mouse) with HPSC-shControl or HPSC-shDKK3 in a tumor-to-stroma ratio of 1:0 or 1:3 in 50-μL of HBSS and tumor growth was monitored using IVIS imaging (Hwang et al., 2008). In addition, a syngeneic immunocompetent DKK3 null model was used, provided by Dr. C. […]

B1: JM6-6-1: monoclonal antibody against human DKK3; heavy chain variable SEQ ID NO: 19, light chain variable SEQ ID NO: 20 (antibody, V domains shown)
VH: EVKLVESGGGLVKPGGSLKLSCAASGFTFTIEYMAWIRQTPEKRLEWVASISSGGDDIYYADNVKGRFTISRDNAKNTLYLQMSSLKSEDTAIYYCSRSLSDWGQGTTLTVSSAKTTPPSDYPLA
VL: MTQTPLSLPVSLGDQASISCRSSQSILHSNGHTYLEWYLQKPGQSPKLLIYKVSNRFSGVPDRFSGSGSGTDFTLKISRVEAEDLGVYYCFQGSHVPFTFGSGTKLEIERADAAQ
For B1, the “tumor response without HPSCs” value was “no significant change”.
